B1: Tyrosine-protein phosphatase non-receptor type 1 (Homo sapiens), P18031 (parent)
chain: MEMEKEFEQIDKSGSWAAIYQDIRHEASDFPCRVAKLPKNKNRNRYRDVSPFDHSRIKLHQEDNDYINASLIKMEEAQRSYILTQGPLPNTCGHFWEMVWEQKSRGVVMLNRVMEKGSLKCAQYWPQKEEKEMIFEDTNLKLTLISEDIKSYYTVRQLELENLTTQETREILHFHYTTWPDFGVPESPASFLNFLFKVRESGSLSPEHGPVVVHCSAGIGRSGTFCLADTCLLLMDKRKDPSSVDIKKVLLEMRKFRMGLIQTADQLRFSYLAVIEGAKFIMGDSSVQDQWKELSHEDLEPPPEHIPPPPRPPKRILEPHNGKCREFFPNHQWVKEETQEDKDCPIKEEKGSPLNAAPYGIESMSQDTEVRSRVVGGSLRGAQAASPAKGEPSLPEKDEDHALSYWKPFLVNMCVATVLTAGAYLCYRFLFNSNT

Variants of: B1
Conditions: with cav1_human CAV1, Q03135
Sequence of cav1_human CAV1, Q03135 (Q03135 whole entry): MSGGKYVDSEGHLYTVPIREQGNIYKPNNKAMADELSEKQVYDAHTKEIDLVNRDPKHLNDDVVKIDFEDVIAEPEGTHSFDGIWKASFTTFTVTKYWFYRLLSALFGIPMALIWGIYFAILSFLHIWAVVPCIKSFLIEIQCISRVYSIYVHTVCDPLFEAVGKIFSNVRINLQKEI

| effect of a mutation on the interaction | Variant |
| --- | --- |
| disrupting interaction | D181A |

Reference: IntAct's records for PubMed 16388599
